Test results from patent publication US12329823B2 (The Scripps Research Institute, priority 2021, dated 2025).
Where “and” joins values, the source holds several entries; their conditions need not be identical. Equal entries are not always repeated. Where two headings read alike, the source gives them in different places.

How the values were obtained:
human GLP-1R = human GLP-1R (Homo sapiens, UniProt P43220); assay: In vitro receptor activation reporter assay (CRE-Luc, HEK293-GLP-1R-CRE cells; receptor-mediated cAMP synthesis); format: cell-based; parameters: expressed in transfected cells; host or cells: HEK293 (CRE-HEK293, HEK293-GLP-1R-CRE); conditions: Table 11, human
Chain of human GLP-1R (P43220 24-463): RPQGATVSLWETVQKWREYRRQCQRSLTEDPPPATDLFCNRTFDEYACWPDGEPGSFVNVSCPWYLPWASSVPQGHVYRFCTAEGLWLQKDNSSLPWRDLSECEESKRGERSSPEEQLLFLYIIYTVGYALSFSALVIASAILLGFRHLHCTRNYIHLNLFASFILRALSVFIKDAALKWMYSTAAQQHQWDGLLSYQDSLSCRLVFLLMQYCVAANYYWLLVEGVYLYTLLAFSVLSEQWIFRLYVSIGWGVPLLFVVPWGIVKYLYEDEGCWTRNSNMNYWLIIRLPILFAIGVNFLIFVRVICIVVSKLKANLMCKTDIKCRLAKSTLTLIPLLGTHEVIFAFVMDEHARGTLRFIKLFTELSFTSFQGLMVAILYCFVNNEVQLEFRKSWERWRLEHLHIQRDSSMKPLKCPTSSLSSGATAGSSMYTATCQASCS
Description: (§1) HEK293 cells were infected with lentivirus encoding firefly luciferase gene under the control of cAMP responsive element (CRE) promoter (Qiagen, The Netherlands) and then were selected using 1 μg mL^−1 puromycin (Life Technologies, Carlsbad) for 1 week. The surviving cells (referred to as CRE-HEK293) were expanded and then transfected with a G418 selective mammalian expression plasmid encoding human GLP-1R or GIPR. In brief, GLP-1R or GIPR plasmid was transfected into CRE-HEK293 cells using Lipofectamine 2000 and selected with 400 μg mL^−1 Geneticin (Life Technologies, Carlsbad, CA). Single colony stable cell line overexpressing CRE-luciferase and GLP-1R or GIPR (HEK293-GLP-1R-CRE or HEK293-GIPR-CRE) was then established for in vitro activity assay.
HEK293 cells were infected with lentivirus encoding firefly luciferase gene under the control of cAMP responsive element (CRE) promoter (Qiagen, The Netherlands) and then were selected using 1 μg/mL puromycin (Life Technologies, Carlsbad) for 1 week. The surviving cells (referred to as CRE-HEK293) were expanded and then transfected with a G418 selective mammalian expression plasmid encoding human GLP-1R. In brief, GLP-1R plasmid was transfected into CRE-HEK293 cells using Lipofectamine 2000 and selected with 400 μg/mL Geneticin (Life Technologies, Carlsbad, CA). Single colony stable cell line overexpressing CRE-luciferase and GLP1R was then established for in vitro activity assay.

mouse GLP1R = target: T1, mouse GLP1R (Mus musculus, UniProt O35659); assay: In vitro potency, mouse GLP1R activation (receptor-mediated cAMP synthesis); format: cell-based; conditions: Table 12
T1 sequence (O35659 22-463): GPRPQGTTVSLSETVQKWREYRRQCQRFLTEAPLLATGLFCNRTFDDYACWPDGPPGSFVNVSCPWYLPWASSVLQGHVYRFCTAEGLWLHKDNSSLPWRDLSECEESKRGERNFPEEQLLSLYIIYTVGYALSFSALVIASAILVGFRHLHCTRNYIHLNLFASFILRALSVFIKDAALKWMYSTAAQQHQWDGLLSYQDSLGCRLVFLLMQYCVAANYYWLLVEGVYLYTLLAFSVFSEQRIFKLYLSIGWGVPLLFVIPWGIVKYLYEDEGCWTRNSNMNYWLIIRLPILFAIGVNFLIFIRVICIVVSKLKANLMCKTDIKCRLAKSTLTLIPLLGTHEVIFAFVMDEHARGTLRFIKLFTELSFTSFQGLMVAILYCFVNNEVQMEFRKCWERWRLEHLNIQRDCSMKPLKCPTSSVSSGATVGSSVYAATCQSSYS
Description: GLP-1R-CRE or HEK293-GIPR-CRE cells were seeded in 384-well plates at a density of 5000 cells per well and cultured for 18 h in DMEM with 10% FBS at 37° C. and 5% CO2. Cells were treated with peptides in a dose dependent manner for 24 h, and receptor activation was reported by luminescence intensities, using One-Glo (Promega, WI) luciferase reagent following manufacturer's instruction. The EC50 of each peptide was determined using GraphPad Prism 6 software (GraphPad, San Diego, CA). Results are depicted in FIGS. 6A-6B, FIGS. 7A-7B, FIGS. 8A-8B, FIGS. 9A-9B, and Tables 7-12. Measurements of peptide conjugate potency were expressed as half maximal effective concentration (EC50) values.

[1] = Pharmacokinetics in CD-1 mouse, I.V. or S.C. 1 mg/kg, plasma concentration by LC-MS; conditions: individual animals; for AUC(0-inf): AUCINF_pred; for MRT inf / MRT last: mouse, in vivo; for MRT inf: MRTINF_pred; for MRT last: MRTlast;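 on all read-outs here: peptide levels in plasma quantified by LC-MS across multiple sampling times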
Description: The peptide plasma concentration at various time points was determined using LC-MS.

mouse GIPR = target: T2, mouse GIPR (Mus musculus, UniProt Q0P543); assay: In vitro potency, mouse GIPR activation (receptor-mediated cAMP synthesis); format: cell-based; conditions: Table 12
T2 sequence (Q0P543 19-460): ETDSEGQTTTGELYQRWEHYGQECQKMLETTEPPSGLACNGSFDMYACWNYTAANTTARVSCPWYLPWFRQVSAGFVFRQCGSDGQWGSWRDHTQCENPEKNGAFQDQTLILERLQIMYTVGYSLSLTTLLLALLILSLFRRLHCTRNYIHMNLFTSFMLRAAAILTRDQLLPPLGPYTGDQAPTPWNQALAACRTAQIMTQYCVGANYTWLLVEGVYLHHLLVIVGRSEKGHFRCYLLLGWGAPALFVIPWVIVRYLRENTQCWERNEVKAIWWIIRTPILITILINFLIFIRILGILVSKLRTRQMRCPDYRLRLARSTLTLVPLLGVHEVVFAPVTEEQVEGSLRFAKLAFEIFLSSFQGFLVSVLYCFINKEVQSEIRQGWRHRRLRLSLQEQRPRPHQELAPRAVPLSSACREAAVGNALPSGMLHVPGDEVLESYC

human GIPR = target: T3, human GIPR (Homo sapiens, UniProt P48546); assay: In vitro receptor activation reporter assay (CRE-Luc, HEK293-GIPR-CRE cells; receptor-mediated cAMP synthesis); format: cell-based; conditions: Table 11, human
T3 construct: expressed in transfected cells; host or cells: HEK293 (CRE-HEK293, HEK293-GIPR-CRE)
T3 sequence (P48546 22-466): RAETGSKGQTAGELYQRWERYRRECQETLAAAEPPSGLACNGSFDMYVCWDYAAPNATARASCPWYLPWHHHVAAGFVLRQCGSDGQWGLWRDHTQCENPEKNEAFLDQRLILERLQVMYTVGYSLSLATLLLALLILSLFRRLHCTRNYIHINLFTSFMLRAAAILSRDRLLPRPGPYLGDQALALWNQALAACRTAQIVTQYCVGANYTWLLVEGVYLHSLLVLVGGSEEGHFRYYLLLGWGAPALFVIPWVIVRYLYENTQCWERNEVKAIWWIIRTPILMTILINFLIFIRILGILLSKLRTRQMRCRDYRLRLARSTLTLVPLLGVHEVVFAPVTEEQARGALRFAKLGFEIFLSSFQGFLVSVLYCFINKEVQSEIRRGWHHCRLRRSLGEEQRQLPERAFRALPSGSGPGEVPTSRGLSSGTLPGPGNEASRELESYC
Description: as §1

[2] = CD-1, mouse, plasma, iv, 1 mg/kg, Table 15, I.V. 1 mg/kg
[3] = CD-1, mouse, plasma, sc, 1 mg/kg, S.C.
[4] = Table 15, I.V. 1 mg/kg, 1 mg/kg
[5] = iv, 1 mg/kg, Table 15, I.V. 1 mg/kg

CC[C@H](C)[C@H](NC(=O)[C@H](CC(C)C)NC(=O)[C@H](Cc1c[nH]c2ccccc12)NC(=O)[C@@H]1CSCC(=O)NCCN(C(=O)CCC(=O)NCCOCCOCCC(=O)NCCOCCOCCC(=O)NCCCC[C@H](NC(=O)CCCCCCCCCCCCCCCCC(=O)O)C(=O)O)CCNC(=O)CSC[C@H](NC(=O)[C@H](CCCCN)NC(=O)[C@H](CC(=O)O)NC(=O)[C@H](CC(C)C)NC(=O)[C@H](Cc2ccc(O)cc2)NC(=O)[C@@H](NC(=O)[C@H](CO)NC(=O)[C@H](Cc2ccc(O)cc2)NC(=O)[C@H](CC(=O)O)NC(=O)[C@H](CO)NC(=O)[C@@H](NC(=O)[C@H](Cc2ccccc2)NC(=O)[C@@H](NC(=O)CNC(=O)[C@H](CCC(=O)O)NC(=O)C(C)(C)NC(=O)[C@@H](N)Cc2ccc(O)cc2)[C@@H](C)O)[C@@H](C)O)[C@@H](C)CC)C(=O)N[C@@H](C)C(=O)N[C@@H](C)C(=O)NC(C)(C)C(=O)N[C@@H](CCC(=O)O)C(=O)N[C@@H](Cc2ccccc2)C(=O)N[C@@H](C(C)C)C(=O)N1)C(=O)N[C@@H](C)C(=O)NCC(=O)NCC(=O)N1CCC[C@H]1C(=O)N[C@@H](CO)C(=O)N[C@@H](CO)C(=O)NCC(=O)N[C@@H](C)C(=O)N1CCC[C@H]1C(=O)N1CCC[C@H]1C(=O)N1CCC[C@H]1C(=O)N[C@@H](CO)C(N)=O [mCMZ371, YAibEGT-FTSDY-SIYLD-KXAAAib-EFVXW-LIAGG-PSSGA-PPPS-NH2 (where each X is C) (SEQ ID NO: 61)]
EC50 (human GLP-1R; In Vitro Potency GLPIR EC50, 10% FBS, 10% FBS): 0.56 ± 0.15 nM
EC50 (human GLP-1R; No Serum, read-out: In Vitro Potency GLPIR EC50, No Serum): 0.14 ± 0.06 nM
EC50 (mouse GLP1R): 0.09 nM
AUC ([1]; CD-1, mouse, plasma, iv, 1 mg/kg, AUC0_24, Table 15, I.V. 1 mg/kg): 242 µg·h/mL
AUC(0-t) ([1]; CD-1, mouse, plasma, iv, 1 mg/kg, AUC last, Table 15, I.V. 1 mg/kg): 341 µg·h/mL
AUC(0-inf) [1, 2]: 344 µg·h/mL
C0 ([1]; CD-1, mouse, plasma, iv, 1 mg/kg, C0, Table 15, I.V. 1 mg/kg): 15500 ng/mL
Cmax ([1]; CD-1, mouse, plasma, iv, 1 mg/kg, Cmax, Table 15, I.V. 1 mg/kg): 15100 ng/mL
Tmax [1, 2]: 0.08 h
Vd ([1]; CD-1, mouse, plasma, iv, 1 mg/kg, Vss_pred, Table 15, I.V. 1 mg/kg): 0.051 L/kg
Vd ([1]; CD-1, mouse, plasma, iv, 1 mg/kg, Vz_pred, Table 15, I.V. 1 mg/kg): 0.038 L/kg
half-life ([1]; CD-1, mouse, plasma, iv, 1 mg/kg, t1/2, Table 15, I.V. 1 mg/kg): 9.13 h
AUC ([1]; CD-1, mouse, plasma, sc, 1 mg/kg, AUC0_24, CD-1 mouse, S.C.): 127 µg·h/mL
AUC(0-inf) [1, 3]: 274 µg·h/mL
AUC ([1]; CD-1, mouse, plasma, sc, 1 mg/kg, AUCall, S.C.): 267 µg·h/mL
CL/F ([1]; CD-1, mouse, plasma, sc, 1 mg/kg, Cl_Fpred, S.C.): 0.12 mL/min/kg
Tmax [1, 3]: 24 h
half-life ([1]; CD-1, mouse, plasma, sc, 1 mg/kg, t1/2, CD-1 mouse, S.C.): 10.7 h
AUC0_24 ([1]; CD-1 mouse, S.C., 1 mg/kg): 67.917 µg·h/mL and 95.28 µg·h/mL
AUCINF_pred ([1]; CD-1 mouse, S.C., 1 mg/kg): 143.707 µg·h/mL and 202.468 µg·h/mL
AUC_% Extrap_pred ([1]; CD-1 mouse, S.C., 1 mg/kg): 2.34% and 3.37% and 2.55%
AUCall ([1]; CD-1 mouse, S.C., 1 mg/kg): 138.868 µg·h/mL and 197.314 µg·h/mL
AUMC_% Extrap_pred ([1]; CD-1 mouse, S.C., 1 mg/kg): 7.05% and 10.52% and 7.78%
Cl_Fpred ([1]; CD-1 mouse, S.C., 1 mg/kg): 0.24 mL/min/kg
Cmax ([1]; CD-1 mouse, S.C., 1 mg/kg): 9259 ng/mL and 3389 ng/mL and 6337 ng/mL
MRTINF_pred ([1]; CD-1 mouse, S.C., 1 mg/kg): 28.76 h and 28.77 h
MRTlast ([1]; CD-1 mouse, S.C., 1 mg/kg): 26.63 h and 27.22 h
Tlast ([1]; CD-1 mouse, S.C., 1 mg/kg): 72 h
V_F_pred ([1]; CD-1 mouse, S.C., 1 mg/kg): 0.06 L/kg and 0.12 L/kg and 0.08 L/kg
t1/2 ([1]; CD-1 mouse, S.C., 1 mg/kg): 12.36 h and 11.01 h
Tlast ([1]; Table 15, I.V. 1 mg/kg): 72 h
AUC0_24 [1, 4]: 255.418 µg·h/mL and 285.442 µg·h/mL
AUC last [1, 4]: 355.565 µg·h/mL and 403.09 µg·h/mL
AUCINF_pred [1, 4]: 359.258 µg·h/mL and 407.964 µg·h/mL
AUC_% Extrap_pred [1, 4]: 0.75% and 1.03% and 1.19%
AUMC_% Extrap_pred [1, 4]: 3.41% and 4.82% and 5.56%
C0 [1, 4]: 21060 ng/mL and 24603 ng/mL
Cmax [1, 4]: 20910 ng/mL and 24203 ng/mL
MRTINF_pred [1, 4]: 18.43 h and 18.65 h
MRTlast [1, 4]: 17.72 h and 17.83 h
Vss_pred [1, 4]: 0.054 L/kg and 0.046 L/kg
Vz_pred [1, 4]: 0.04 L/kg and 0.036 L/kg
t1/2 [1, 4]: 10 h and 10.31 h
MRT inf [1, 5]: 18.7 h
MRT last [1, 5]: 18.2 h
MRT inf ([1]; sc, 1 mg/kg, CD-1 mouse, S.C.): 29 h
MRT last ([1]; sc, 1 mg/kg, CD-1 mouse, S.C.): 27.6 h
EC50 (mouse GIPR): 0.27 nM
EC50 (human GIPR; In Vitro Potency GIPR EC50, 10% FBS, 10% FBS): 0.04 ± 0.01 nM
EC50 (human GIPR; No Serum, read-out: In Vitro Potency GIPR EC50, No Serum): 0.01 nM
